Assay results from PMC10136361, “Inhibition Analysis and High-Resolution Crystal Structure of Mus musculus Glutathione Transferase P1-1” (Biomolecules, 2023).

Substrate: N[C@@H](CCC(=O)N[C@@H](CS)C(=O)NCC(=O)O)C(=O)O
Assay: purified protein
Conditions: G-site

B1: MmGSTP1-1 (Mus musculus) (protein)
chain: PPYTIVYFPVRGRCEAMRMLLADQGQSWKEEVVTIDTWMQGLLKPTCLYGQLPKFEDGDLTLYQSNAILRHLGRSLGLYGKNQREAAQMDMVNDGVEDLRGKYVTLIYTNYENGKNDYVKALPGHLKPFETLLSQNQGGKAFIVGDQISFADYNLLDLLLIHQVLAPGCLDNFPLLSAYVARLSARPKIKAFLSSPEHVNRPINGNGKQ
Q: Which Km does the source give for B1 here?
A: The Km was 220 ± 10 µM.
